Drawing on US20230331828A1, this text covers Mean (Aβ spots per neuron); Isotype Control 1:50 (Aβ spots per neuron) for one substance.

The target in the test is soluble Aβ (Aβ42) aggregates (human). The test is described as follows: cell-based or functional assay.
Chain of soluble Aβ (Aβ42) aggregates (human) (peptide, as listed by the source): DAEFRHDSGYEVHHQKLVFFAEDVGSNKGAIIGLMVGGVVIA

For the substance human IgG isotype control antibody, the Mean (Aβ spots per neuron); Isotype Control 1:50 (Aβ spots per neuron) stood at 58.7.
